Measured values as given in the supplement of paper PMC12764529.
± gives the half width of the 95% confidence interval.

Columns and labels:
[1] = folding stability dG unfold (combined trypsin and chymotrypsin); higher = more stable
Procedure, shortened: (§1)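 Digests were run with trypsin and chymotrypsin at 11 concentrations in threefold dilutions, plus a no-protease condition, on designed mini-proteins in a PA-tagged cDNA display construct. The mini-proteins were under 80 residues, had no cysteine, and were kept only when AlphaFold2 dimer inter-PAE was above 15. After sequencing, Bayesian fitting of the counts gave K50, from which unfolding free energy was derived against a sequence-predicted unfolded-state K50 and a shared folded-state K50, per protease or combined.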

[2] = folding stability dG unfold from chymotrypsin proteolysis; higher = more stable
Procedure, shortened: as §1

[3] = folding stability dG unfold from trypsin proteolysis; higher = more stable
Procedure, shortened: as §1

Row | Sequence | folding stability dG unfold [1] [kJ/mol] | folding stability dG unfold [2] [kJ/mol] | folding stability dG unfold [3] [kJ/mol]
1 | SAGGSAGGSGEELRNLLANVKKVTVFPNADGGLGVLIELEPEEPEERTIVLNYDQLAELLALGSAGGSAGGS [r12_466_TrMRF] | 3.92 ± 0.628 | 3.4 ± 0.46 | 3.83 ± 0.109
2 | SAGGSAGGSGGFLVLEFEIEVDPEDPEKALAVVEALVESLGFEPVLIEVEEDENRVRVRVLLGSAGGSAGGS [r12_731_TrMRF] | 13 ± 0.544 | 13 ± 0.544 | 12.3 ± 0.414
3 | SAGGSAGGSGGMMKVIVSVSPGEEAVEKVNKLVNETDLPPIEVIIIPHSPDDPIVVAILLLLLSAGGSAGGS [r12_649_JUSTAS] | 11.4 ± 0.238 | 13.1 ± 0.134 | 9.74 ± 0.222
4 | SAGGSAGGSGIEELKKAGFEIVRIERKEDGTLRLTVRNKETEETKTIEITLPEAEVELVEPPESAGGSAGGS [r12_166_TrROS_Hall] | 14.9 ± 0.389 | 15.7 ± 0.318 | 14.1 ± 0.46
5 | SAGGSAGGSGKPEKVKITYTKDTNTNKYTATITFENGPTYKITFPTKTPEEAIEQAKKLIEASSAGGSAGGS [r12_339_TrMRF] | 8.1 ± 0.628 | 8.58 ± 0.134 | 6.77 ± 0.255
6 | SAGGSAGGSGMKITSISKLPDGSYLVTTQDPGKGTPTTVPFSTPEEGKKLKKELEEKGGKVELSAGGSAGGS [r20_177_JUSTAS] | -0.298 ± 0.753 | -0.29 ± 0.46 | -0.277 ± 0.418
7 | SAGGSAGGSGMMFELAFREIKYSPNDSVTIKAELPDGSSITIPTKKGEIKFKLPENGYVKVLGSAGGSAGGS [r12_746_JUSTAS] | -1.1 ± 0.837 | -2.15 ± 2.3 | -1.18 ± 1.42
8 | SAGGSAGGSGMMLKIEIPVEDPGSEEKAKKIAEELAKKLGLSPKEVKIKIKVIPKLPPEEILNSAGGSAGGS [r12_1066_JUSTAS] | 2.43 ± 0.92 | 2.22 ± 0.46 | 1.97 ± 0.322
9 | SAGGSAGGSGMMTVELTETIVSETSVVTEKVPEKGEFIVEVLETSVSVVRRTLPLALYQALLESAGGSAGGS [r12_723_JUSTAS] | 3.3 ± 0.364 | 2.64 ± 0.406 | 3.62 ± 0.297
10 | SAGGSAGGSGMMYKVTVEIYNPANGEKIGTIEREVTSEEEAKAEIEKELPLENVKVKITIEGPSAGGSAGGS [r12_578_JUSTAS] | 4.11 ± 1.05 | 3.42 ± 0.753 | 3.54 ± 0.351
11 | SAGGSAGGSGMTEVVAEKKYPNEVILVTKEPDSYYIVKVTLKDGKVVEKENLGKISPDDPSILSAGGSAGGS [r12_154_JUSTAS] | -0.258 ± 0.92 | -1.92 ± 1.63 | -0.194 ± 0.272
12 | SAGGSAGGSGMTTTLTTEPRPDSTVVTTTTTTPTSVTTTTTVYDPDGNVVSTTTTTTPLPATSSAGGSAGGS [r12_710_JUSTAS] | 4.63 ± 0.117 | 1.07 ± 0.0753 | 7.26 ± 0.247
13 | SAGGSAGGSGNSKLTATLTLEFYDPKTGKKIAKIELKPVITTLPNGTAKIDVEYKITFTNEDDSAGGSAGGS [r12_629_TrMRF] | 14.2 ± 0.46 | 15.7 ± 0.46 | 10.9 ± 0.586
14 | SAGGSAGGSGSFSLSFPDADGVSVTLDPNTGIVTMSFNRPDANYTITLERYPDSIVVKEIKLPSAGGSAGGS [r20_60_JUSTAS] | 5.51 ± 0.259 | 6.21 ± 0.418 | 4.38 ± 0.109
15 | SAGGSAGGSGSMKVYTHNVPPGQELTITITRGSSSTTLTFPPNTTVTITVPTSSPATITLTAPSAGGSAGGS [r12_550_JUSTAS] | 7.3 ± 0.293 | 7.81 ± 0.226 | 5.81 ± 0.13
16 | SAGGSAGGSGSSTEVTTTTLPDTSYTTTNSTTTTFSPDQPEAVEAGLPVPSTVTTTTTTSPAGSAGGSAGGS [r20_138_JUSTAS] | 2.47 ± 0.502 | 0.251 ± 0.418 | 3.84 ± 0.234
17 | SAGGSAGGSGSTVVEVEFPDARIVITVEPPGVLTVTVERPPFPVETVRLPDMTVEEAVAYALASAGGSAGGS [r20_8_JUSTAS] | 6.21 ± 0.31 | 4.75 ± 0.41 | 7.38 ± 0.222
18 | SAGGSAGGSIKPGQKVKIEIKVEEVDGKLVITAKVYNKDGKLIYEAEIVIENGKIKEVKITPPSAGGSAGGS [r12_264_TrROS_Hall] | 12.1 ± 1.42 | 13 ± 1.3 | 10.8 ± 0.669

Row | Sequence | folding stability dG unfold [1] [kJ/mol] | folding stability dG unfold [2] [kJ/mol] | folding stability dG unfold [3] [kJ/mol]
19 | SAGGSAGGSIPEILKKIGISPEVVTEVEVTPVEKLPDSLVVKVTYTYKLPNGTTETKTVTVPIGSAGGSAGG [r6_776_JUSTAS] | 11.1 ± 0.544 | 11.5 ± 0.142 | 8.96 ± 0.381
20 | SAGGSAGGSIRIIFPVDNPEQAENIAEEIAERFGIQIEDIEVEQVPNGMYIVTFEVKIPPEMISAGGSAGGS [r12_577_TrROS] | 9.95 ± 0.402 | 9.54 ± 0.151 | 10.1 ± 0.544
21 | SAGGSAGGSIRRDENGNFRVRIKVRFPGNGRKRTIEIPFDNATLEEIRKQAIDHGIRPIEIIPSAGGSAGGS [r12_792_TrROS] | 5.18 ± 0.197 | 5.66 ± 0.222 | 4.16 ± 0.218
22 | SAGGSAGGSISQIKSKIKKILEEKGLKPTKIVIKKTEKLKNKIKVEVEVEIGKGPKISMIIEIESAGGSAGG [r6_841_JUSTAS] | 13.4 ± 0.92 | 10.2 ± 0.669 | 16.3 ± 0.879
23 | SAGGSAGGSITIEIPGASSLEEAIEQAEVVVNEIVKKGYPGKPIKVTVILPGTGEAFTFEVPLESAGGSAGG [r6_237_TrMRF] | 9.16 ± 0.502 | 10.1 ± 0.197 | 8.44 ± 0.46
24 | SAGGSAGGSIWIPPNHSVEEFAKEIQDKGNAEVKRDEPGWYKIKSKNNKPKKRIRFQANPEQFSAGGSAGGS [r20_236_TrROS] | -0.192 ± 1.8 | 1 ± 2.22 | -0.682 ± 2.09
25 | SAGGSAGGSKAEVFETPDGLVVVVVPTEDSVRAFVFFPDGYIAEFDFPTGKIVRIFSPDEEIASAGGSAGGS [r12_235_TrMRF] | 13.7 ± 0.331 | 14.8 ± 0.218 | 11.7 ± 0.377
26 | SAGGSAGGSKAKIEVLEVFPDYIVYKIETENPVIAVIVPLPNGKVKIFVFNPNGEPIAEFELGSAGGSAGGS [r12_1061_TrMRF] | 14.2 ± 0.711 | 16.2 ± 0.259 | 8.52 ± 0.753
27 | SAGGSAGGSKEIVIKVNVSEEDLKEKAEELLKKLEELLPPGAKIKKIEIEYDEETGELVIKIESAGGSAGGS [r12_308_TrROS_Hall] | 9.46 ± 0.753 | 8.13 ± 0.628 | 10.4 ± 0.92
28 | SAGGSAGGSKGVKELVIVVPPDKPEKIEEFLKKLRDEYAKDIKVLEVKETPDGGYIAKIKITDSAGGSAGGS [r12_91_TrMRF] | 7.75 ± 0.502 | 8.21 ± 0.297 | 5.84 ± 0.172
29 | SAGGSAGGSKIEIHVQVSPELSPEEALERIRREIEEALPEELKDISLDDIIITVYPSHPDVPLSAGGSAGGS [r12_384_TrMRF] | 2.69 ± 0.414 | -0.0932 ± 0.222 | 4.57 ± 0.197
30 | SAGGSAGGSKIKIYPYSTKGKNEVYYLIETENNYLYIKVTIYYDPKTGKPVKIEIKEIFTLPKSAGGSAGGS [r12_70_TrMRF] | 10.8 ± 1.09 | 12.8 ± 0.502 | 10.2 ± 0.377
31 | SAGGSAGGSKIPPNQFIVRIEIKRRKPNGEKRKHEIIIPVGMPLDTLRDHAPPGYEITDIEVISAGGSAGGS [r12_597_TrROS] | 6.67 ± 0.209 | 7.52 ± 0.0879 | 4.91 ± 0.0962
32 | SAGGSAGGSKITIKLIKNGEIVEEKEIEDKKTGKKIKIKAIKKDGKLYLVIEVDGKKYVIPLPSAGGSAGGS [r12_994_TrROS_Hall] | 15 ± 1.63 | 16.5 ± 0.372 | 8.45 ± 0.962
33 | SAGGSAGGSKKEYLVLVYNPATGEPFPILAPDDVPFEELAKKIADEILKGLPKDVKIEFVKLGSAGGSAGGS [r20_213_TrMRF] | 3.66 ± 0.711 | 3.33 ± 0.255 | 3.38 ± 0.36
34 | SAGGSAGGSKKKITVKIEEVKLNPETGKLVLVKIKLPDGKELVFKTPEEIENLPGAEFEVYELSAGGSAGGS [r20_192_TrROS_Hall] | 6.08 ± 1.13 | 6.17 ± 0.544 | 6.41 ± 0.586
35 | SAGGSAGGSKKKKKPKKKKYIVIKVDMSLEEVKKLISKLLGFEEGEKIEIVKVDPENKYIVIKSAGGSAGGS [r12_815_TrROS_Hall] | 8.72 ± 1.13 | 9.83 ± 0.46 | 8.39 ± 0.301
36 | SAGGSAGGSKKKLTLTLKVEYVDEETGEKRTVTLTITAESEEEAKAALEELAKKLPPGARIEVSAGGSAGGS [r20_211_TrROS_Hall] | 17.6 ± 0.795 | 18.6 ± 0.46 | 13.8 ± 0.669
